In PMC9712689 (Communications Biology, 2022):

Experiments:
Experiment in all cases: MST
Settings in all cases: both partners purified
MltA = target: T1, MltA (P. aeruginosa PAO1, UniProt Q9I4B6 1-385)
T1 sequence (looked up): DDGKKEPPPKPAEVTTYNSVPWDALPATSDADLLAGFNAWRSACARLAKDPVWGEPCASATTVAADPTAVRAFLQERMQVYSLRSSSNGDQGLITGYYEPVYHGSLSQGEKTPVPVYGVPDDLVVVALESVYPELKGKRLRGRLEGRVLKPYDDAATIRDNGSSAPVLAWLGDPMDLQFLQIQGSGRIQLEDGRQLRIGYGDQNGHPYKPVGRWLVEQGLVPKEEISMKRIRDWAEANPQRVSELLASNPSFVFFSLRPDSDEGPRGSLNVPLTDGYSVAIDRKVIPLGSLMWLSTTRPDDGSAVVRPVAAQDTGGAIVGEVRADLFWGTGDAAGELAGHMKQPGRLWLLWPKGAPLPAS

PBP1a = PBP1a (P. aeruginosa PAO1, UniProt Q07806 27-822)
MltB = target: T2, MltB (P. aeruginosa PAO1, UniProt Q9HVX3 1-367)
T2 sequence (looked up): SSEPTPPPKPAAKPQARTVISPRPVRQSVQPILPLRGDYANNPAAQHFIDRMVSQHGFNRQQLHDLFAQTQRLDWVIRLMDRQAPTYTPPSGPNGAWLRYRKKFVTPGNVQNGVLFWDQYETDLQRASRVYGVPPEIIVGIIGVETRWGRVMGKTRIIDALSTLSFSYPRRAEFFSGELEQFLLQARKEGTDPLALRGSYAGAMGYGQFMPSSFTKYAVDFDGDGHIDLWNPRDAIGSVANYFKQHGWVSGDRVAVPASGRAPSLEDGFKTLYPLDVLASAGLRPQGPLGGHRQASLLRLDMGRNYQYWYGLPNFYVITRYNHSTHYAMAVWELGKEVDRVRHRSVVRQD

MltF = MltF (P. aeruginosa PAO1, UniProt Q9HXN1 33-490)
SltB2 = target: T3, SltB2 (P. aeruginosa PAO1, UniProt Q9I4G6 1-398)
T3 sequence (looked up): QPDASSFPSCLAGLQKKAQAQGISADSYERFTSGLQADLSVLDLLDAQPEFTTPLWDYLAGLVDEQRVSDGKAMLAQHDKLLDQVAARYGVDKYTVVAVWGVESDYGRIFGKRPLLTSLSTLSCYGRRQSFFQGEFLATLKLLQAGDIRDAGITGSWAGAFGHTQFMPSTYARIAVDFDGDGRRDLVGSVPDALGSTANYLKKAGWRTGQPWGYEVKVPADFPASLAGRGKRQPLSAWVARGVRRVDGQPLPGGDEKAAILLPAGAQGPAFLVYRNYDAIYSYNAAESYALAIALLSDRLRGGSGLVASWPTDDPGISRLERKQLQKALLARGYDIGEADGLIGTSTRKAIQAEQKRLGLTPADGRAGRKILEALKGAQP

MltD = target: T4, MltD (P. aeruginosa PAO1, UniProt Q9I2T2 1-534)
T4 sequence (looked up): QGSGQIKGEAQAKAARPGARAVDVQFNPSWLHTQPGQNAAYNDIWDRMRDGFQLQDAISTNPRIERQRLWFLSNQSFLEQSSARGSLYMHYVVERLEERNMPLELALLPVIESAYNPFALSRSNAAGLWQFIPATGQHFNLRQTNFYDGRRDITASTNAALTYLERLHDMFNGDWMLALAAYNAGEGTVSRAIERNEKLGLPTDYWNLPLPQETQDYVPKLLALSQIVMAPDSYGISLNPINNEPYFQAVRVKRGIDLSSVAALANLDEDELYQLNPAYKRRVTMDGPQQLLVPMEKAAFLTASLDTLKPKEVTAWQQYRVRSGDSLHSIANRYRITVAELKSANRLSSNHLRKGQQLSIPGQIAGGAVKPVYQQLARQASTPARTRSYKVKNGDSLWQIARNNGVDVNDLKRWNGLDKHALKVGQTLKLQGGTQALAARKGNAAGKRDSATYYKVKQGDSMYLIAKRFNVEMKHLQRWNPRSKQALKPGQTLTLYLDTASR

PBP4 = target: T5, PBP4 (P. aeruginosa PAO1, UniProt Q9HZG1 1-476)
T5 sequence (looked up): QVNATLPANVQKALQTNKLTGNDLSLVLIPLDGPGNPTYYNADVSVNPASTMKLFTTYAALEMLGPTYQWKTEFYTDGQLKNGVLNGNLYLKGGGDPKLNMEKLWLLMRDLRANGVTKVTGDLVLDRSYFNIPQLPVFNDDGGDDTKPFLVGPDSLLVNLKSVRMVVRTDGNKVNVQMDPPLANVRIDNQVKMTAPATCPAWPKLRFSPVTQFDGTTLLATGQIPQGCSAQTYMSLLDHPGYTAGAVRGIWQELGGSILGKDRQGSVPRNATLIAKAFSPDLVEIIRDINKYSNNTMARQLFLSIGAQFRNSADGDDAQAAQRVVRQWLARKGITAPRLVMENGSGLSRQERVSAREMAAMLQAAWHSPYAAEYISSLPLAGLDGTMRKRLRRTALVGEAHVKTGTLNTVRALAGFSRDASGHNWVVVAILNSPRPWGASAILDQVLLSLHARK

TypA = target: T6, TypA (P. aeruginosa PAO1, UniProt Q9HU67 1-605)
T6 sequence (looked up): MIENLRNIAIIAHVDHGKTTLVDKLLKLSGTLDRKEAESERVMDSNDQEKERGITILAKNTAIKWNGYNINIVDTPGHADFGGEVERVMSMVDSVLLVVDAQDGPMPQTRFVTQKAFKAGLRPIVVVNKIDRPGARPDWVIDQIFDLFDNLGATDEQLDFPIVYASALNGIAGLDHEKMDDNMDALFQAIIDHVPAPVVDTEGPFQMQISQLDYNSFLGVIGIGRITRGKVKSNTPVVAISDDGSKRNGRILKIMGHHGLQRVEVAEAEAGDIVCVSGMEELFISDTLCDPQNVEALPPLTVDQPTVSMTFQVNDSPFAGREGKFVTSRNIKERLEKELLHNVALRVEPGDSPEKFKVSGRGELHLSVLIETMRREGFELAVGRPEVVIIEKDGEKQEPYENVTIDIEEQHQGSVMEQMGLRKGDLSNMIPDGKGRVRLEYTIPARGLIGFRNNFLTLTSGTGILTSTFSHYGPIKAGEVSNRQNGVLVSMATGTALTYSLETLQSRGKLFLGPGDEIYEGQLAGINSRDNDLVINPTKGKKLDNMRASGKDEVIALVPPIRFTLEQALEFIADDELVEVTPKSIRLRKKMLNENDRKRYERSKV

MltF2 = target: T7, MltF2 (P. aeruginosa PAO1, UniProt Q9HZY1 1-476)
T7 sequence (looked up): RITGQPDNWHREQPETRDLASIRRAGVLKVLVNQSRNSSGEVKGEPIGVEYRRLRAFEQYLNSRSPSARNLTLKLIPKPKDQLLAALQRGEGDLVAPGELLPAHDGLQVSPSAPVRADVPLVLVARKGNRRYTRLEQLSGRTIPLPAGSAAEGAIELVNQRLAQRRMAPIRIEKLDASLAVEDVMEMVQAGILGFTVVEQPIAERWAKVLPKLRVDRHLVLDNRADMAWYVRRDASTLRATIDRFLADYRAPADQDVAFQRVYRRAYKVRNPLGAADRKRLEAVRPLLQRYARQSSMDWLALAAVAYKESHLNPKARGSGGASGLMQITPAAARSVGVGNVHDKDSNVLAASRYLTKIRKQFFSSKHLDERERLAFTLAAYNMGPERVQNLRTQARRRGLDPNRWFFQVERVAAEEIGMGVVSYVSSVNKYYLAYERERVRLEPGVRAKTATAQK

MltF, sequence (Q9HXN1 33-490): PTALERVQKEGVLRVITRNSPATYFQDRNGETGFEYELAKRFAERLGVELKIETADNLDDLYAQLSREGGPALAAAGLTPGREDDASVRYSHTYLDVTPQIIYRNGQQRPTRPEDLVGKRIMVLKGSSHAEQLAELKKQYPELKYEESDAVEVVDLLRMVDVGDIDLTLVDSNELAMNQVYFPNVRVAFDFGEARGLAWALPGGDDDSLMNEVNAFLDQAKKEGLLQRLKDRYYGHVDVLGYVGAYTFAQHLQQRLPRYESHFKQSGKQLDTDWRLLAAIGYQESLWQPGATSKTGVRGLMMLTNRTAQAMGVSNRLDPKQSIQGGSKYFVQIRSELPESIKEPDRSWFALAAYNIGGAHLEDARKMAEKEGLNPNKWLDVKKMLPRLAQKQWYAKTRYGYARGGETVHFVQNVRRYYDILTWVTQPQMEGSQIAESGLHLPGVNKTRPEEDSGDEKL
PBP1a, sequence (Q07806 27-822): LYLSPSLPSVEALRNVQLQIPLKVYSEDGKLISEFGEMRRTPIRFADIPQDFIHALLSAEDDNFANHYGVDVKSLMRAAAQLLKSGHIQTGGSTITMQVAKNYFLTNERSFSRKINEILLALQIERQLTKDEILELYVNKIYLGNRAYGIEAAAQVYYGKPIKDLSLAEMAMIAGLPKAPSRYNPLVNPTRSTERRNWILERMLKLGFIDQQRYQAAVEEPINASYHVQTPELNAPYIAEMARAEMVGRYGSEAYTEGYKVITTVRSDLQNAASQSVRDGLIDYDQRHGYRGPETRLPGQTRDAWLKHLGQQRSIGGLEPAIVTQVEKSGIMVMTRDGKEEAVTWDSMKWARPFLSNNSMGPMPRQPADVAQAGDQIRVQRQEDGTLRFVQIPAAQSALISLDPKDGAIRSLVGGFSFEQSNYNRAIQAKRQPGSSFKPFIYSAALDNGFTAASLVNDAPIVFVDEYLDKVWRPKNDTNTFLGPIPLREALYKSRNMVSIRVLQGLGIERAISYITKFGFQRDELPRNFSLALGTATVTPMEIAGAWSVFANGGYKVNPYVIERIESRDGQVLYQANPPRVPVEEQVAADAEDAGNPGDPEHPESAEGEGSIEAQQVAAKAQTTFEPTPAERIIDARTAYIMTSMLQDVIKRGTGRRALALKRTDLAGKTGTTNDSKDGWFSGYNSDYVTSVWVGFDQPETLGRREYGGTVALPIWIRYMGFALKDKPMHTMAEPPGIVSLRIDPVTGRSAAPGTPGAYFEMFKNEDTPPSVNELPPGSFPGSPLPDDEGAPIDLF

B1: RlpA-Δ32, fluorescently labeled (domain or fragment)
chain: PQQPARQAGISGPGDYSRPHRDGAPWWDVDVSRIPDAVPMPHNGSVKANPYTVLGKTYYPMNDARAYRMVGTASWYGTKFHGQATANGETYDLYGMTAAHKTLPLPSYVRVTNLDNGKSVIVRVNDRGPFYSDRVIDLSFAAAKKLGYAETGTARVKVEGIDPVQWWAQRGRPAPMVLAQPKQAVAQAAPAAAQTQAVAMAQPIETYTPPPAQHAAAVLPVQIDSKKNASLPADGLYLQVGAFANPDAAELLKAKLSGVTAAPVFISSVVRNQQILHRVRLGPIGSADEVSRTQDSIRVANLGQPTLVRPD
modifications: amine reactive RED-NHS dye
notes: source: E. coli BL21-star (DE3), purified (Ni-NTA), labelled with RED-NHS dye
Q: What does the source list for B1?
A: Kd (MltA): 67 nM; Kd (PBP1a): 92 nM; Kd (MltB): 96 nM; Kd (MltF): 101 nM; Kd (SltB2): 110 nM; Kd (MltD): 240 nM; Kd (PBP4): 550 nM; Kd (TypA): 1000 nM; Kd (MltF2): 12 nM
